# T1: meltrin α (Homo sapiens, UniProt O43184, E208G/T209S)
# T1 construct: had been converted to mature meltrin α having the prodomain deleted (molecular weight 68 kDa); made in house; host or cells: COS-1
# T1 sequence (O43184 208-738 isoform O43184-2 E208G/T209S): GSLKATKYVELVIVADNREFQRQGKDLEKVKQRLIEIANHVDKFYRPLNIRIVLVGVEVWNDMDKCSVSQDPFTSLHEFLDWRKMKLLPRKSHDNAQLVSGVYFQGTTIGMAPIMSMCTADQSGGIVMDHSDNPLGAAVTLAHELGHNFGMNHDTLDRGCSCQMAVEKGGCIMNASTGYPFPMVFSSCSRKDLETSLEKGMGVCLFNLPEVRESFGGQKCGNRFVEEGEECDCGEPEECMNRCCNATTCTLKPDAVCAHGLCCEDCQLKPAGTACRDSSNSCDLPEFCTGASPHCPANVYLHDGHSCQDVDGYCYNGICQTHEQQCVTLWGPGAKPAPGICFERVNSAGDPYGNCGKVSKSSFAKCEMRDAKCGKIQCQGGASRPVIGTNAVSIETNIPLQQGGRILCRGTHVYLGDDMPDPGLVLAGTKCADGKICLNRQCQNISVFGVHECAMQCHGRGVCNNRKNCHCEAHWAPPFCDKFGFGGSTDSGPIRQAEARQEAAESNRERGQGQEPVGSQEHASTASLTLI
# B1: F1196-113-1: anti-meltrin α monoclonal antibody clone (antibody, V domains shown)
# VH: EVKLLESGGGLVQPGGSLKLSCAASGFDFSRYWMSWVRQAPGKGLEWIGEINPDSSTINYTPSLKDKFIISRDNAKNTLYLHMSKVRSEDTALYYCARPDSYYRYYAMDYWGQGTSVTVSSAKTTA
# VL: DIQMTQTTSSLSASLGDRVTISCRASQDISNYLNWYQQKPDGTVKLLIYYTSRLHSGVPSRFSGSGSGTDYSLTISNQEQEDIATYFCQQGNTLPYTFGGGTKLEIKR
# Target: T1, meltrin α
# Test: Inhibition of protease activity of meltrin α (rhIGF-BP3 cleavage, western blotting)
# Type: biochemical
# Details: antibody 300 μg/mL; rhIGF-BP3 band
# Experimental: Thrombin (Amersham Biosciences) was added to the purified meltrin α-STFLAG prepared in Example 5, and mixture was kept at 25° C. for 15 hours. When the solution after the reaction was examined by repeating the procedure of Example 5, the human meltrin α containing the prodomain (molecular weight 92 kDa) had been converted to mature meltrin α having the prodomain deleted (molecular weight 68 kDa). For measuring the enzymatic activity of the meltrin α, the solution after the prodomain cleavage with thrombin followed by inactivation of the thrombin by 10 mM APMSF (Wako Pure Chemical Industries, Ltd.) was used. The disappearance of the thrombin activity was confirmed by using the synthetic substrate for the thrombin on the reaction solution. […]
# The anti-human meltrin α antibodies produced in Examples 6 and 7 were evaluated on their activity for inhibiting protease activity of meltrin α by using the protease activity assay system of Example 9. […] After the reaction, the reaction solution was electrophoresed by SDS-PAGE, and the rhIGF-BP3 was detected by western blotting.
# According to the method of Example 9, activity of the low molecular weight compound for inhibiting protease activity of the meltrin α was assayed as described below. […] After the reaction, the reaction solution was electrophoresed by SDS-PAGE, and the rhIGF-BP3 was detected by western blotting.
molecule,measurement,value
B1,activity for inhibiting protease activity of meltrin α,inhibitory activity for the meltrin α protease activity has been confirmed

# Reference: patent US20080292619A1, “Pharmaceutical Composition Containing Meltrin Antagonist” (MOCHIDA PHARMACEUTICAL CO., LTD., priority 2004, published 2008)
